Source: paper PMC12724136, “Design of antibody structure-guided epitope vaccines in silico to induce potent immune responses against emerging viruses” (Journal of Virology, 2025)

B1: unnamed (parent)
chain 1: MSHRLTCAYSGFSSDIHAVWVRQAAGKGLEWIAYISDSSAYIYYSQSVRGRFTISRDNSRKQVYLQMNSLTTEDSAVYYCTREGSGFAFDYWGKGTGGGGSGGGGSGGGGSVTISATGSSNIGADLSWYLQKTGETPKLLIYKASTRSSGTPPRFSGSTSGSQYTLTISGVQAEDAGDYYCLGDHGGGALTFGGGTK
chain 2: GYQLASEIRGTIPLSS
B2: unnamed (parent)
chain 1: B1 chain 1
chain 2: DAIGMGSIGVMLAYMVRRKC
B3: unnamed (parent)
chain 1: B1 chain 1
chain 2: NIEWGDEVDLEM

Variants of: B1
Test: indirect ELISA
Conditions: with partner chain of the complex shown, scFv1 protein 50 µg/mL, value read at the highest peptide concentration, parent: 1.6, read off a plot

Variant	response (Binding activity)
chain 2 Y2A R9A L14A	0.63

Same assay, conditions: with partner chain of the complex shown; peptides 50 µg/mL; scFv1 group of bars; parent: 1.6; read off a plot

Variant	response (Binding activity)
chain 2 Y2A R9A L14A	0.62

Same assay, conditions: with partner chain of the complex shown; scFv1 50 µg/mL

Variant	EC50 (lg EC50 (µg/mL))
chain 2 Y2A R9A L14A	3.57

Same assay, conditions: with partner chain of the complex shown; scFv1 50 µg/mL; value read at the highest peptide concentration, log10 = 2 (µg/mL); parent: 1.9; read off a plot

Variant	response (Binding activity)
chain 2 Y2A R9A L14A	0.58

Variants of: B2
Test: indirect ELISA
Conditions: with partner chain of the complex shown, scFv1 protein 50 µg/mL, value read at the highest peptide concentration, parent: 0.98, read off a plot

Variant	response (Binding activity)
chain 2 S7A V10A R17A	0.46

Same assay, conditions: with partner chain of the complex shown; peptides 50 µg/mL; scFv1 group of bars; parent: 0.98; read off a plot

Variant	response (Binding activity)
chain 2 S7A V10A R17A	0.55

Same assay, conditions: with partner chain of the complex shown; scFv1 50 µg/mL

Variant	EC50 (lg EC50 (µg/mL))
chain 2 S7A V10A R17A	3.96

Same assay, conditions: with partner chain of the complex shown; scFv1 50 µg/mL; value read at the highest peptide concentration, log10 = 2 (µg/mL); parent: 0.95; read off a plot

Variant	response (Binding activity)
chain 2 S7A V10A R17A	0.47

Variants of: B3
Test: indirect ELISA
Conditions: with partner chain of the complex shown, scFv1 protein 50 µg/mL, value read at the highest peptide concentration, parent: 1.3, read off a plot

Variant	response (Binding activity)
chain 2 W4A D6A E7A D9A	0.53

Same assay, conditions: with partner chain of the complex shown; peptides 50 µg/mL; scFv1 group of bars; parent: 1.3; read off a plot

Variant	response (Binding activity)
chain 2 W4A D6A E7A D9A	0.52

Same assay, conditions: with partner chain of the complex shown; scFv1 50 µg/mL

Variant	EC50 (lg EC50 (µg/mL))
chain 2 W4A D6A E7A D9A	4.17

Same assay, conditions: with partner chain of the complex shown; scFv1 50 µg/mL; value read at the highest peptide concentration, log10 = 2 (µg/mL); parent: 0.77; read off a plot

Variant	response (Binding activity)
chain 2 W4A D6A E7A D9A	0.47
